B1: amyloid-reactive humanized antibody (VH SEQ ID NO:55 / VL SEQ ID NO:36) (antibody, V domains shown)
VH: QVQLQESGPGLVKPSETLSLTCTVSGFSLSSYGVSWIRQPPGKGLEWLGVIWGEGSTNYHPNLMSRVTISVDTSKSQVLFKLSSVTAADTAVYYCATLDYWGQGTSVTVSS
VL: DVVMTQSPLSLPVTLGQPASISCRSSQSLVHRSGNTYLHWFQQRPGQSPRLLIYKVSNRFSGVPDRFSGSGSGTDFTLKISRVEAEDVGVYFCFQTTYVPNTFGGGTKLEIK

How the values were obtained:
[1] = tested on: rVλ6WIL fibrils; assay: rVλ6WIL (WIL) fibril extension assay with biotinylated rVλ6WIL monomer; assay type: biochemical; conditions: for % Change (at 2 μM) in rVλ6WIL fibril extension: at 2 μM sample, 20 nM Biotin-WIL, blocking agent BSA, compared to control sample
Experimental: A WIL fibril extension assay was developed for analyzing in vitro amyloid fibril formation using biotinylated WIL monomers.
First, a high binding 96-well ELISA plate was coated with 0.83 μM sonicated rVλ6WIL synthetic fibrils ([…]). The fibrils were then dried in a 37° C. oven. Subsequently, the plate was washed twice with wash buffer (PBS+0.05% tween 20). The plate was then blocked with […] of 1% BSA in PBS for 1 hour at 37° C. The blocking buffer was then removed and the plate was washed twice with wash buffer. For positive control wells, 100 mL of 20 nM biotinylated rVλ6WIL monomer (biotinylated with EZ-link Sulfo-NHS-biotin (ThermoFisher Scientific) following their protocol) in 1% BSA+0.05% tween 20 in PBS (BSAT) was added per well. For test wells, 100 mL of a mix of 20 nM biotinylated rVλ6WIL monomer plus an amyloid-reactive peptide, an amyloid-reactive antibody, or an amyloid-reactive antibody-peptide fusion protein (2, 0.5, 0.05, 0.01, 0.005 and 0.001 […]) in BSAT was added per well. Background control wells (containing no fibrils) contained […] of 20 nM biotinylated rVλ6WIL monomer in BSAT added to them. The microplate was then incubated for 1 hour at 37° C. The plate was then washed twice with wash buffer. 100 mL of a 1:1000 dilution of europium-labeled streptavidin (Perkin Elmer) in BSAT was then added into each well and incubated for 1 hour at 37° C. Next, the plate was washed 3× with wash buffer. To quantify amyloid fibril formation, […] of enhancement solution (Perkin Elmer) was added to each well and time-resolved fluorescence emission was measured in each well.
The methods of Example 1 were carried out in the presence of the amyloid reactive peptide p5R, an amyloid-reactive antibody-peptide fusion protein, an amyloid-reactive humanized antibody, or a control.
Assay conditions included the following: 20 nM biotinylated WIL monomer, 1 hour incubation using BSA as a blocking agent, and 50 μL/well of 10 μg/mL fibrils (0.83 μg).

[2] = molecular target: rVλ6WIL synthetic fibrils; assay: fibril extension assay: 20 nM biotin-WIL monomer binding to plate-coated rVλ6WIL fibrils in the presence of 2 µM sample, BSA block, europium-streptavidin

Molecule	% Change (at 2 μM) in rVλ6WIL fibril extension [1]	rVλ6WIL fibril extension in the presence of the peptide ([1]; concentrations between 0.001 μM to 2.0 μM, FIGS. 2A, 2B)	% Change (at 2 µM) of rVλ6WIL fibril extension against control [2] [%]	extension of rVλ6WIL fibrils in the presence of the antibody ([1]; beginning at a concentration of 0.01 μM, FIGS. 4A, 4B)	concentration at which significant attenuation of rVλ6WIL fibril extension begins ([1]; tested 0.001 to 2 μM) [nM]	concentration of maximum level of rVλ6WIL fibril extension inhibition ([1]; tested 0.001 to 2 μM) [nM]
Amyloid reactive peptide p5R: amyloid-reactive peptide p5R, SEQ ID NO: 2, RAQRAQARQARQAQRAQRAQARQARQ (RAQRAQARQARQAQRAQRAQARQARQ)	+12%	insufficient to inhibit rVλ6WIL fibril extension				
RAQRAQARQARQAQRAQRAQARQARQ [amyloid-reactive peptide p5R]			12			
B1	−89%		-89	significantly attenuated	10	2000

Source: US20260193333A1, “METHODS OF INHIBITING FIBRIL GROWTH” (University of Tennessee Research Foundation, priority 2023, published 2026)
